Experimental data reported in US20180327803A1.

Legend:
[1] = target: human IgG1 antibody (#I5154; Sigma-Aldrich) (human); assay: SPR, single cycle kinetics, IgG1 chip
[2] = target: human IgG1 antibody (#I5154; Sigma-Aldrich) (human); assay: ELISA
[3] = target: human IgG3 antibody (#I5654; Sigma-Aldrich) (human); assay: ELISA
[4] = target: human serum-derived IgG polyclonal antibody (#I4506; Sigma-Aldrich) (human); assay: SPR, lysate, human IgG chip
[5] = target: human IgG2 antibody (#I5404; Sigma-Aldrich) (human); assay: ELISA
[6] = target: human IgG4 antibody (#I4639; Sigma-Aldrich) (human); assay: ELISA
[7] = target: human serum-derived IgG polyclonal antibody (#I4506; Sigma-Aldrich) (human); assay: ELISA
[8] = target: human serum-derived IgA polyclonal antibody (#I4036; Sigma-Aldrich) (human); assay: ELISA
[9] = target: human serum-derived IgA polyclonal antibody (#I4036; Sigma-Aldrich) (human); assay: SPR, lysate, human IgA chip

Kd [1] | koff [1] | kon [1] | OD [2] | OD [3] | koff [4] | OD [5] | OD [6] | OD [7] | OD [8] | koff [9] | Binder
0.55 nM | 3.7e-05 s⁻¹ | 67000 M⁻¹ s⁻¹ | – | – | – | – | – | – | – | – | R3-75 rabbit-derived single-chain antibody-His (scFv) scFv: QSVKESGGRLVTPGTPLTLTCTVSGIDLSSNAMSWVRQAPGEGLEWIGTISTVGKTYFASWAKGRFTISKTSTTVDLRITSPTTEDTATYFCATRYDSYGYAYNYWFGTLWGPGTLVTVTSGGGGSGGGGSGGGGSELDLTQTPPSVSGAVGGTVTIKCQASENINSELAWYQQKPGQRPKLLIYDASKLASGVPSRFSGSGSGTEYTLTISGMQCDDAATYYCQSTYYDGNYVYAFGGGTEVDVTRSHHHHHH
– | – | – | 3.14 | 3.11 | 0.000742 s⁻¹ | 3.08 | 3.17 | 3.05 | – | – | R3-58 (scFv, not shown: small tags and cut ends) scFv: QQQLMESGGRLVTPGGSLTLTCTVSGIDLNSYAMGWVRQAPGKGLEYIGIIRNSGNTYYASWAKGRFTISKTSSTTVDLKMTSLTTEDTATYFCARYSGDNGGALNLWGPGTLVTVTSGGGGSGGGGSGGGGSELVMTQTAASVSGPVGGTVTIKCQASEFIRNYLAWYQQKPGQPPKLLIYTTSNLASGVPSRFSGSGSGTEYTLTISDLECADAATYYCQNYYDISTYGNAFGGGTEVVVIKGS
– | – | – | 3.09 | 2.99 | – | 3.09 | 3.08 | – | 3.03 | 0.000181 s⁻¹ | IgA R3-18 (scFv, not shown: small tags and cut ends) scFv: QSLEESGGRLVTPGTPLTLTCTVSGIDLSSNAMTWVRQAPGEGLEWIGTISTGGSTYFASWAKGRFTISKTSTTVDLKITSPTTEDTATYFCATRYDSYGYAYNYWFGTLWGPGTLVTVTSGGGGSGGGGSGGGGSELVMTQTAASVSEPVGGTVTIKCQASQNINNELAWYQQKPGQRPKLLIYDASKLASGVPSRFSGSGSGTEFTLTISGMQCDDAATYYCQSTYYDGNYVYAFGGGTEVDVKGS
– | – | – | 3.09 | 3.02 | – | 3.07 | 3.07 | – | 3 | 9.88e-05 s⁻¹ | IgA R3-1 (scFv, not shown: small tags and cut ends) scFv: QSVKESGGRLVTPGTPLTLTCTVSGIDLSSNAMSWVRQAPGEGLEWIGTISTVGKTYFASWAKGRFTISKTSTTVDLRITSPTTEDTATYFCATRYDSYGYAYNYWFGTLWGPGTLVTVTSGGGGSGGGGSGGGGSELDLTQTPPSVSGAVGGTVTIKCQASENINSELAWYQQKPGQRPKLLIYDASKLASGVPSRFSGSGSGTEYTLTISGMQCDDAATYYCQSTYYDGNYVYAFGGGTEVDVTRS
– | – | – | 3.05 | 3.12 | 0.000278 s⁻¹ | 3.04 | 3.11 | 3.01 | 3.06 | – | R3-75 (scFv, not shown: small tags and cut ends) scFv: QSVKESGGRLVTPGTPLTLTCTVSGIDLSSNAMSWVRQAPGEGLEWIGTISTVGKTYFASWAKGRFTISKTSTTVDLRITSPTTEDTATYFCATRYDSYGYAYNYWFGTLWGPGTLVTVTSGGGGSGGGGSGGGGSELDLTQTPPSVSGAVGGTVTIKCQASENINSELAWYQQKPGQRPKLLIYDASKLASGVPSRFSGSGSGTEYTLTISGMQCDDAATYYCQSTYYDGNYVYAFGGGTEVDVTRS
11 nM | 0.00013 s⁻¹ | 11000 M⁻¹ s⁻¹ | – | – | – | – | – | – | – | – | R3-23 rabbit-derived single-chain antibody-His (scFv) scFv: QSVKESEGRLVTPGTPLTLTCTVSGFSLSRYAVSWVRQAPGKGLEWIGIIGSGGSTSYATWARGRFTISKTSTTVDLKITSPTTEDTVTYFCGSYYDSHGYAYVSLWGPGTLVTVTSGGGGSGGGGSGGGGSELVLTQTPSPVSGAVGGTVTINCQASQSISTALAWYQQKPGQPPKLLIYSASTLASGVSSRFKGSGSGTGFTLTISDLECADAATYYCQSYYGSSSDNAFGGGTEVVIKRSHHHHHH
– | – | – | 3.1 | 3.14 | 0.000571 s⁻¹ | 3.04 | 3.16 | 3.1 | – | – | R3-26 (scFv, not shown: small tags and cut ends) scFv: QEQLVESGGGLVKPGGTLTLTCTVSGIDLSSYAMSWVRQVPGKGLEWIGIIGSGGGTAYANWAKGRFTISKTSSTTVDLKMTSLTTEDTATYFCATDYGIYGYAYGHLWGPGTLVTVTSGGGGSGGGGSGGGGSELVMTQTASPVSAAVGGTVTIKCQASQSISTALAWYQQRPGQPPKLLIYDASTLASGVSSRFKGSGSGTEFTLTISDLECADAATYYCQTYFGSDTDNAFGEGTEVEITGS

The remaining lines, values behind:

Binder | Kd [1] | koff [1] | kon [1] | OD [2] | OD [3] | koff [4] | OD [5] | OD [6] | OD [7] | OD [8] | koff [9]
R2-16 (scFv, not shown: small tags and cut ends) scFv: QSVKESGGRLVTPGTPLTLTCTVSGFSLSSYAMGWVRQAPGKGLEYIGIISSSGSTYYASWAKGRFTISKTSTTVDLKITSPTTEDTATYFCARYSGDNGGALNLWGPGTLVTVTSGGGGSGGGGSGGGGSELDLTQTAASVSEPVGGTVTISCQSSQHIRSYLAWYQQKPGQPPKLLISAASTLASGVSSRFKGSGSGTEFTLTISDLECADAATYYCQRYYDIRNYGNGFGGGTEVEITGS | – | – | – | 3.12 | 3.05 | 0.000838 s⁻¹ | – | – | – | – | –
R2-18 rabbit-derived single-chain antibody-His (scFv) scFv: QSLEESGGRLVTPGTPLTLTCTVSGIDLSSNAMTWVRQAPGEGLEWIGTISTGGSTYFASWAKGRFTISKTSTTVDLKITSPTTEDTATYFCATRYDSYGYAYNYWFGTLWGPGTLVTVTSGGGGSGGGGSGGGGSELVMTQTAASVSEPVGGTVTIKCQASQNINNELAWYQQKPGQRPKLLIYDASKLASGVPSRFSGSGSGTEFTLTISGMQCDDAATYYCQSTYYDGNYVYAFGGGTEVDVKGSHHHHHH | 4.8 nM | 0.00012 s⁻¹ | 25000 M⁻¹ s⁻¹ | – | – | – | – | – | – | – | –
R1-7 rabbit-derived single-chain antibody-His (scFv) scFv: QSLEESGGRLVTPGTPLTLTCTVSGIDLRRYAMGWVRQAPGKGLQWIGIIASGNTDYASWAKGRFTISATSTTVDLKITSPTTEDTATYFCARYSGDNGGTLNLWGPGTLVTVTSGGGGSGGGGSGGGGSELVMTQTAASVSEPVGGTVTIKCQASQSISSYLAWYQQKPGQPPKLLIYAASNLASGVSSRFKGSGSGTEFTLTISDLECADAATYYCQSYYSISSYGNTFGGGTEVEITGSHHHHHH | 24 nM | 0.0017 s⁻¹ | 71000 M⁻¹ s⁻¹ | – | – | – | – | – | – | – | –
R1-27 (scFv, not shown: small tags and cut ends) scFv: QQQLMESGGGLVTPGTPLTLTCTVSGIDLRRYAMGWVRQAPGKGLQWIGIIASGNTDYASWAKGRFTISATSTTVDLKITSSTTEDTATYFCARYSGDNGGTLNLWGPGTLATVTTGGGGSGGGGSGGGGSELVMTQTAASVSEPVGGTVTIKCQASEHIRNYLAWYQQKPGQPPKLLIYTTSNLASGVPSRFSGSGSGTEYTLTISDLECADAATYYCQNYYDISTYGNTFGGGTEVDVKGS | – | – | – | 3.07 | 3.08 | 0.000859 s⁻¹ | – | – | – | – | –
R3-23 (scFv, not shown: small tags and cut ends) scFv: QSVKESEGRLVTPGTPLTLTCTVSGFSLSRYAVSWVRQAPGKGLEWIGIIGSGGSTSYATWARGRFTISKTSTTVDLKITSPTTEDTVTYFCGSYYDSHGYAYVSLWGPGTLVTVTSGGGGSGGGGSGGGGSELVLTQTPSPVSGAVGGTVTINCQASQSISTALAWYQQKPGQPPKLLIYSASTLASGVSSRFKGSGSGTGFTLTISDLECADAATYYCQSYYGSSSDNAFGGGTEVVIKRS | – | – | – | 3.06 | 3.02 | 0.000408 s⁻¹ | 3.06 | 3.06 | 3.04 | – | –
R2-18 (scFv, not shown: small tags and cut ends) scFv: QSLEESGGRLVTPGTPLTLTCTVSGIDLSSNAMTWVRQAPGEGLEWIGTISTGGSTYFASWAKGRFTISKTSTTVDLKITSPTTEDTATYFCATRYDSYGYAYNYWFGTLWGPGTLVTVTSGGGGSGGGGSGGGGSELVMTQTAASVSEPVGGTVTIKCQASQNINNELAWYQQKPGQRPKLLIYDASKLASGVPSRFSGSGSGTEFTLTISGMQCDDAATYYCQSTYYDGNYVYAFGGGTEVDVKGS | – | – | – | 3.11 | 3.08 | 0.0008 s⁻¹ | – | – | – | 3.11 | –
R3-8 (scFv, not shown: small tags and cut ends) scFv: QSLEESGGRLVTPGTPLTLTCTVSGIDLSSNAMTWVRQAPGEGLEWIGTISTGGSTYFASWAKGRFTISKTSTTVDLKITSPTTEDTATYFCATRYDSYGYAYNYWFGTLWGPGTLVTVTSGGGGSGGGGSGGGGSELVMTQTAASVSEPVGGTVTINCQASQSISDELAWYQQKPGQRPKLLIYDASDLASGVPSRFSGSGSGTEFTLTISGVQCDDAATYYCQSAYYDGRYVYAFGGGTEVEVTGS | – | – | – | 3.03 | 3.06 | 0.00088 s⁻¹ | 3.02 | 3.09 | 3.01 | 3.06 | –
R1-7 (scFv, not shown: small tags and cut ends) scFv: QSLEESGGRLVTPGTPLTLTCTVSGIDLRRYAMGWVRQAPGKGLQWIGIIASGNTDYASWAKGRFTISATSTTVDLKITSPTTEDTATYFCARYSGDNGGTLNLWGPGTLVTVTSGGGGSGGGGSGGGGSELVMTQTAASVSEPVGGTVTIKCQASQSISSYLAWYQQKPGQPPKLLIYAASNLASGVSSRFKGSGSGTEFTLTISDLECADAATYYCQSYYSISSYGNTFGGGTEVEITGS | – | – | – | 3.12 | – | 0.00175 s⁻¹ | – | – | – | – | –
R1-27 rabbit-derived single-chain antibody-His (scFv) scFv: QQQLMESGGGLVTPGTPLTLTCTVSGIDLRRYAMGWVRQAPGKGLQWIGIIASGNTDYASWAKGRFTISATSTTVDLKITSSTTEDTATYFCARYSGDNGGTLNLWGPGTLATVTTGGGGSGGGGSGGGGSELVMTQTAASVSEPVGGTVTIKCQASEHIRNYLAWYQQKPGQPPKLLIYTTSNLASGVPSRFSGSGSGTEYTLTISDLECADAATYYCQNYYDISTYGNTFGGGTEVDVKGSHHHHHH | 40 nM | 0.0004 s⁻¹ | 9900 M⁻¹ s⁻¹ | – | – | – | – | – | – | – | –
R2-16 rabbit-derived single-chain antibody-His (scFv) scFv: QSVKESGGRLVTPGTPLTLTCTVSGFSLSSYAMGWVRQAPGKGLEYIGIISSSGSTYYASWAKGRFTISKTSTTVDLKITSPTTEDTATYFCARYSGDNGGALNLWGPGTLVTVTSGGGGSGGGGSGGGGSELDLTQTAASVSEPVGGTVTISCQSSQHIRSYLAWYQQKPGQPPKLLISAASTLASGVSSRFKGSGSGTEFTLTISDLECADAATYYCQRYYDIRNYGNGFGGGTEVEITGSHHHHHH | 2.5 nM | 0.00032 s⁻¹ | 130000 M⁻¹ s⁻¹ | – | – | – | – | – | – | – | –
